Test results reported in patent publication US20260001928A1 (CORTERIA PHARMACEUTICALS, priority 2022, published 2026).
*1 amine or outer side, *2 acyl side, *3 side chain or, on linkers, in order; H or OH if unused. Where no end group is shown, it is not given here. Side-chain parts run from the residue outwards. [ ]: non-standard residue; d: D form. The star is where a group is joined. C20 diacid = O=C(O)CCCCCCCCCCCCCCCCCCC(=O)*; γGlu = O=C(O)[C@H](CCC(=O)[*:2])N[*:1]; NMeI = CC[C@H](C)[C@H](NC)C(=O)O; Pentanoyl = CCCCC(=O)*; Aib = CC(C)(N)C(=O)O

B1: peptide of SEQ ID NO: 218 (peptide)
peptide: [NMeI]VLSLD[dV]PIKLK([γGlu-C20 diacid])KILLEQEKQKEQREQAETN[Aib]QILAQV-NH2
modifications: N-terminus assumed
SMILES: CC[C@H](C)[C@H](NC)C(=O)N[C@H](C(=O)N[C@@H](CC(C)C)C(=O)N[C@@H](CO)C(=O)N[C@@H](CC(C)C)C(=O)N[C@@H](CC(=O)O)C(=O)N[C@@H](C(=O)N1CCC[C@H]1C(=O)N[C@H](C(=O)N[C@@H](CCCCN)C(=O)N[C@@H](CC(C)C)C(=O)N[C@@H](CCCCNC(=O)CC[C@H](NC(=O)CCCCCCCCCCCCCCCCCCC(=O)O)C(=O)O)C(=O)N[C@@H](CCCCN)C(=O)N[C@H](C(=O)N[C@@H](CC(C)C)C(=O)N[C@@H](CC(C)C)C(=O)N[C@@H](CCC(=O)O)C(=O)N[C@@H](CCC(N)=O)C(=O)N[C@@H](CCC(=O)O)C(=O)N[C@@H](CCCCN)C(=O)N[C@@H](CCC(N)=O)C(=O)N[C@@H](CCCCN)C(=O)N[C@@H](CCC(=O)O)C(=O)N[C@@H](CCC(N)=O)C(=O)N[C@@H](CCCNC(=N)N)C(=O)N[C@@H](CCC(=O)O)C(=O)N[C@@H](CCC(N)=O)C(=O)N[C@@H](C)C(=O)N[C@@H](CCC(=O)O)C(=O)N[C@H](C(=O)N[C@@H](CC(N)=O)C(=O)NC(C)(C)C(=O)N[C@@H](CCC(N)=O)C(=O)N[C@H](C(=O)N[C@@H](CC(C)C)C(=O)N[C@@H](C)C(=O)N[C@@H](CCC(N)=O)C(=O)N[C@H](C(N)=O)C(C)C)[C@@H](C)CC)[C@@H](C)O)[C@@H](C)CC)[C@@H](C)CC)C(C)C)C(C)C
B2: peptide of SEQ ID NO: 217 (peptide)
peptide: [NMeI]VLSLD[dV]PIKLK([γGlu-C20 diacid])KILLEQEKQKAQREQAETN[Aib]QILAQV-NH2
modifications: N-terminus assumed
SMILES: CC[C@H](C)[C@H](NC)C(=O)N[C@H](C(=O)N[C@@H](CC(C)C)C(=O)N[C@@H](CO)C(=O)N[C@@H](CC(C)C)C(=O)N[C@@H](CC(=O)O)C(=O)N[C@@H](C(=O)N1CCC[C@H]1C(=O)N[C@H](C(=O)N[C@@H](CCCCN)C(=O)N[C@@H](CC(C)C)C(=O)N[C@@H](CCCCNC(=O)CC[C@H](NC(=O)CCCCCCCCCCCCCCCCCCC(=O)O)C(=O)O)C(=O)N[C@@H](CCCCN)C(=O)N[C@H](C(=O)N[C@@H](CC(C)C)C(=O)N[C@@H](CC(C)C)C(=O)N[C@@H](CCC(=O)O)C(=O)N[C@@H](CCC(N)=O)C(=O)N[C@@H](CCC(=O)O)C(=O)N[C@@H](CCCCN)C(=O)N[C@@H](CCC(N)=O)C(=O)N[C@@H](CCCCN)C(=O)N[C@@H](C)C(=O)N[C@@H](CCC(N)=O)C(=O)N[C@@H](CCCNC(=N)N)C(=O)N[C@@H](CCC(=O)O)C(=O)N[C@@H](CCC(N)=O)C(=O)N[C@@H](C)C(=O)N[C@@H](CCC(=O)O)C(=O)N[C@H](C(=O)N[C@@H](CC(N)=O)C(=O)NC(C)(C)C(=O)N[C@@H](CCC(N)=O)C(=O)N[C@H](C(=O)N[C@@H](CC(C)C)C(=O)N[C@@H](C)C(=O)N[C@@H](CCC(N)=O)C(=O)N[C@H](C(N)=O)C(C)C)[C@@H](C)CC)[C@@H](C)O)[C@@H](C)CC)[C@@H](C)CC)C(C)C)C(C)C
B3: peptide of SEQ ID NO: 213 (peptide)
peptide: Ac-IVLSLD[dV]PIKLK([γGlu-C20 diacid])KILLEQEKQKEQREQAETN[Aib]QILAQV-NH2
SMILES: CC[C@H](C)[C@H](NC(C)=O)C(=O)N[C@H](C(=O)N[C@@H](CC(C)C)C(=O)N[C@@H](CO)C(=O)N[C@@H](CC(C)C)C(=O)N[C@@H](CC(=O)O)C(=O)N[C@@H](C(=O)N1CCC[C@H]1C(=O)N[C@H](C(=O)N[C@@H](CCCCN)C(=O)N[C@@H](CC(C)C)C(=O)N[C@@H](CCCCNC(=O)CC[C@H](NC(=O)CCCCCCCCCCCCCCCCCCC(=O)O)C(=O)O)C(=O)N[C@@H](CCCCN)C(=O)N[C@H](C(=O)N[C@@H](CC(C)C)C(=O)N[C@@H](CC(C)C)C(=O)N[C@@H](CCC(=O)O)C(=O)N[C@@H](CCC(N)=O)C(=O)N[C@@H](CCC(=O)O)C(=O)N[C@@H](CCCCN)C(=O)N[C@@H](CCC(N)=O)C(=O)N[C@@H](CCCCN)C(=O)N[C@@H](CCC(=O)O)C(=O)N[C@@H](CCC(N)=O)C(=O)N[C@@H](CCCNC(=N)N)C(=O)N[C@@H](CCC(=O)O)C(=O)N[C@@H](CCC(N)=O)C(=O)N[C@@H](C)C(=O)N[C@@H](CCC(=O)O)C(=O)N[C@H](C(=O)N[C@@H](CC(N)=O)C(=O)NC(C)(C)C(=O)N[C@@H](CCC(N)=O)C(=O)N[C@H](C(=O)N[C@@H](CC(C)C)C(=O)N[C@@H](C)C(=O)N[C@@H](CCC(N)=O)C(=O)N[C@H](C(N)=O)C(C)C)[C@@H](C)CC)[C@@H](C)O)[C@@H](C)CC)[C@@H](C)CC)C(C)C)C(C)C
B4: peptide of SEQ ID NO: 222 (peptide)
peptide: Pentanoyl-VLSLD[dV]PIKLK([γGlu-C20 diacid])KILLEQEKQKAQREQAETN[Aib]QILAQV-NH2
SMILES: CCCCC(=O)N[C@H](C(=O)N[C@@H](CC(C)C)C(=O)N[C@@H](CO)C(=O)N[C@@H](CC(C)C)C(=O)N[C@@H](CC(=O)O)C(=O)N[C@@H](C(=O)N1CCC[C@H]1C(=O)N[C@H](C(=O)N[C@@H](CCCCN)C(=O)N[C@@H](CC(C)C)C(=O)N[C@@H](CCCCNC(=O)CC[C@H](NC(=O)CCCCCCCCCCCCCCCCCCC(=O)O)C(=O)O)C(=O)N[C@@H](CCCCN)C(=O)N[C@H](C(=O)N[C@@H](CC(C)C)C(=O)N[C@@H](CC(C)C)C(=O)N[C@@H](CCC(=O)O)C(=O)N[C@@H](CCC(N)=O)C(=O)N[C@@H](CCC(=O)O)C(=O)N[C@@H](CCCCN)C(=O)N[C@@H](CCC(N)=O)C(=O)N[C@@H](CCCCN)C(=O)N[C@@H](C)C(=O)N[C@@H](CCC(N)=O)C(=O)N[C@@H](CCCNC(=N)N)C(=O)N[C@@H](CCC(=O)O)C(=O)N[C@@H](CCC(N)=O)C(=O)N[C@@H](C)C(=O)N[C@@H](CCC(=O)O)C(=O)N[C@H](C(=O)N[C@@H](CC(N)=O)C(=O)NC(C)(C)C(=O)N[C@@H](CCC(N)=O)C(=O)N[C@H](C(=O)N[C@@H](CC(C)C)C(=O)N[C@@H](C)C(=O)N[C@@H](CCC(N)=O)C(=O)N[C@H](C(N)=O)C(C)C)[C@@H](C)CC)[C@@H](C)O)[C@@H](C)CC)[C@@H](C)CC)C(C)C)C(C)C

Target: Rat CRF2 a (corticotropin-releasing factor receptor 2), on the A7R5 rat aortic smooth muscle cell line (rat, UniProt P47866 20-411)
Sequence (P47866 20-411): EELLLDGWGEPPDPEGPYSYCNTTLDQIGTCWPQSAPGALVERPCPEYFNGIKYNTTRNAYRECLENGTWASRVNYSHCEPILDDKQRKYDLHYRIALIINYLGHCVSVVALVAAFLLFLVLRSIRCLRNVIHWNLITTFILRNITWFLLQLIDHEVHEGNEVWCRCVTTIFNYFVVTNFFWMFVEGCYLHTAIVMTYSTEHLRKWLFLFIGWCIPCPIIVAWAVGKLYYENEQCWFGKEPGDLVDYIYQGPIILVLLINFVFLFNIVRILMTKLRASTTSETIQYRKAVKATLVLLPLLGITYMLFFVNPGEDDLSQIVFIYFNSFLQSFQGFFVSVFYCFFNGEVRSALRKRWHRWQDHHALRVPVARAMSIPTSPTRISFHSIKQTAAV
Assay: cell-based or functional assay

Row | EC50 [nM] 0% HSA (cAMP, A7R5 rat aortic smooth muscle cells) | Binder
1 | 0.13 nM | B1
2 | 0.06 nM | B2
3 | 0.45 nM | B3
4 | 0.18 nM | B4
